Assay [1] concerns the target T1, N-terminal FLAG-tagged cynomolgus monkey ROBO4, cynoROBO4-2 (pCI-FLAG-cynoROBO4-2) (cynomolgus monkey, UniProt Q8WZ75 28-1007 (human entry)).
T1 chain: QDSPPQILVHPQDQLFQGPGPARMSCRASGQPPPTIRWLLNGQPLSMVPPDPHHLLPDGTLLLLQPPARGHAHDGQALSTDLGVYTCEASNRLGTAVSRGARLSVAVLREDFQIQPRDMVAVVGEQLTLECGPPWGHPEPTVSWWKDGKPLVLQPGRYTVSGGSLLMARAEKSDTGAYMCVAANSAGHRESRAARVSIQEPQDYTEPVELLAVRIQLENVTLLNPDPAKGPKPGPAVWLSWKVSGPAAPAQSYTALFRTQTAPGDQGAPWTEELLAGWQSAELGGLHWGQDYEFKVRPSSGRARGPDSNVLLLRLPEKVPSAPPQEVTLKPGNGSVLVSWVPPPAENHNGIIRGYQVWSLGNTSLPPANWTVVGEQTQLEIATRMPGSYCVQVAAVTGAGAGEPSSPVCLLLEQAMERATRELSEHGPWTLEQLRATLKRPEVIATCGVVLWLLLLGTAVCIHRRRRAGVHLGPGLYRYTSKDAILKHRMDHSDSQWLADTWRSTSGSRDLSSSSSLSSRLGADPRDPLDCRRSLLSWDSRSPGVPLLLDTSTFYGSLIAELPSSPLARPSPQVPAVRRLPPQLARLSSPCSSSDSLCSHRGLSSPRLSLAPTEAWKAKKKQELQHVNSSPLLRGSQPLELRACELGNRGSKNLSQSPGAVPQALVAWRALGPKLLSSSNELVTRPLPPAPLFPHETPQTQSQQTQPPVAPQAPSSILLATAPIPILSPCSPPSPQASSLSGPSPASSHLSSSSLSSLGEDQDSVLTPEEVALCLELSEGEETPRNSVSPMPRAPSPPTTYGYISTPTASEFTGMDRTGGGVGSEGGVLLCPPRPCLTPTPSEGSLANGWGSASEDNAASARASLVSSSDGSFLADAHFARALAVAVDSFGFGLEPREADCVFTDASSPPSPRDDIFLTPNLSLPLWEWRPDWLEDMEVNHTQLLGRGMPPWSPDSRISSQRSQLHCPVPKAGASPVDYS
Briefly: flow cytometry (FC500), HEK293 cells transfected with pCI-FLAG-cynoROBO4-2, antibody at 10 µg/mL, FITC goat anti-human IgG Fc; control histogram IgG (human IgG). For orientation: In flow cytometry, cells or beads pass a laser one at a time.

In assay [2] the target is T2, N-terminal FLAG-tagged cynomolgus monkey ROBO4, cynoROBO4-1 (pCI-FLAG-cynoROBO4-1) (cynomolgus monkey, UniProt Q8WZ75 28-1007 (human entry)).
T2 chain: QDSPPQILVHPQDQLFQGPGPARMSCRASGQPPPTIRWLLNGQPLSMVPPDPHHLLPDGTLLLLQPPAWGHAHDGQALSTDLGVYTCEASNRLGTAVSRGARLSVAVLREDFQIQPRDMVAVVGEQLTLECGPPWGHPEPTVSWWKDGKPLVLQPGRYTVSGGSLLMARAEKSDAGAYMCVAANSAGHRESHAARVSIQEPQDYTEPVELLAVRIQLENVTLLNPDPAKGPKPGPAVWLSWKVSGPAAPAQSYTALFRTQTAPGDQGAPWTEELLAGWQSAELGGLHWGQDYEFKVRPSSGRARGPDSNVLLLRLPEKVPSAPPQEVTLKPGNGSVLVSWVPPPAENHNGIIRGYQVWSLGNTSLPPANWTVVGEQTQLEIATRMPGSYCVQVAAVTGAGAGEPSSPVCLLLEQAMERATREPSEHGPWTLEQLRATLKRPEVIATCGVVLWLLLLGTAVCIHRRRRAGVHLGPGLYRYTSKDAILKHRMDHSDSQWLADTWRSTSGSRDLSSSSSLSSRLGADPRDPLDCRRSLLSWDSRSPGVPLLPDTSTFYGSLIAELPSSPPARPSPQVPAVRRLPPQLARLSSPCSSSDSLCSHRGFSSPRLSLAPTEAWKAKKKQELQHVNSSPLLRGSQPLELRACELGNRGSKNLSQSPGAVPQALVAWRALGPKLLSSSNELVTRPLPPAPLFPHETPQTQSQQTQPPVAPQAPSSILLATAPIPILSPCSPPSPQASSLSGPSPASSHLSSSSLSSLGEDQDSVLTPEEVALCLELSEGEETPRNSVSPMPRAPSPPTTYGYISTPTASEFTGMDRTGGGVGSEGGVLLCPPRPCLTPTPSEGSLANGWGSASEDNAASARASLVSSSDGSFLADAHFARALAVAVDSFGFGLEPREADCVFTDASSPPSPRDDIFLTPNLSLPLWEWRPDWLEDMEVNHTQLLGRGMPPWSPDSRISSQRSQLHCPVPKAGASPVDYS
Description: flow cytometry (FC500), HEK293 cells transfected with pCI-FLAG-cynoROBO4-1, antibody at 10 µg/mL, FITC goat anti-human IgG Fc; control histogram IgG (human IgG).

B1: humanized MAb1 antibody H-1143 (antibody, human IgG2, kappa, V domains shown)
VH: EVQLVESGGGLVQPGGSLRLSCAASGFTFSTYAMSWVRQAPGKGLEWVATISQGGTYTYYPDSVKGRFTISRDNAKNTLYLQMNSLRAEDTAVYYCARLIYYDYLDYWGQGTLVTVSS
VL: DIVMTQSPLSLPVTLGEPASISCRSSQSLENENKNLYLNWYLQKPGQSPQLLIYRVSNRFSGVPDRFSGSGSGTDFTLKISRVEAEDVGVYYCLQVTHVPWTFGPGTKVDIKR
notes: Human IgG2 / kappa constant regions; also called hMAb1-H2-type heavy chain + hMAb1-L2-type light chain
Turning to B1, the binding result in assay [1] is “binds”.

B2: humanized MAb1 antibody H-2143 (antibody, human IgG2, kappa, V domains shown)
VH: EVQLVESGGGLVQPGGSLRLSCAASGFTFSTYAMSWVRQAPGKRLEWVATISQGGTYTYYPDSVKGRFTISRDNAKNTLYLQMNSLRAEDTAVYYCARLIYYDYLDYWGQGTLVTVSS
VL: DIVMTQSPLSLPVTLGEPASISCRSSQSLENENKNLYLNWYLQKPGQSPQLLIYRVSNRFSGVPDRFSGSGSGTDFTLKISRVEAEDVGVYYCLQVTHVPWTFGPGTKVDIKR
notes: Human IgG2 / kappa constant regions; also called hMAb1-H4-type heavy chain + hMAb1-L2-type light chain
For the molecule B2, the binding result in assay [2] was “binds”.

For the origin of these results see patent publication US20150098945A1 (Daiichi Sankyo, published 2015).
